The Human Domainome abundance scans (Beltran et al. 2025)

B1: Friend leukemia integration 1 transcription factor, residues 116 to 197; numbered along this chain, Q01543 (parent)
chain: NMTTNERRVIVPADPTLWTQEHVRQWLEWAIKEYSLMEIDTSFFQNMDGKELCKMNKEDFLRATTLYNTEVLLSHLSYLRES

Variants of: B1
Assay: abundance fitness (aPCA) (normalised: wild type 0, dead -1); higher = more abundant; growth selection in yeast, the domain comes from the species named
Conditions: Homo sapiens

Abundance fitness of substitutions, site by site:
T41: Q -0.076; G -0.129; L 0.051; R -0.079; H -0.14; F 0.302; A -0.035; C 0.015; D 0.063; N -0.103; Y 0.051; K 0.011; V -0.09; E -0.08; P 0.003
E33: W -0.382; T -0.243; D -0.117; S -0.238; Q -0.055; I -0.437; Y -0.278; K -0.021; G -0.8; R -0.06; P -0.973; F -0.803; V -0.435; H -0.204; L -0.981; N -0.354
Q45: H -0.072; T -0.068; F -0.102; Y 0; D -0.295; R 0.091; G -0.04; K -0.048; M 0.026; S -0.003; A 0.028; C -0.081; V 0.062; P -0.381; L -0.009; W 0.056; E 0.045
E38: I -0.32; F -0.329; R -0.203; N -0.397; T -0.145; K -0.087; G -0.131; S -0.068; V -0.231; M -0.09; H -0.231; Q -0.215; C -0.126; W -0.349; L -0.04
M37: E -0.115; D 0.021; L -0.001; N -0.44; C -0.317; F 0.187; R -0.055; Q -0.242; T 0.055; K 0.008; W -0.13; P -0.076; S -0.078; A 0.003; Y 0.059; G -0.02; V 0.066
W26: M -0.445; P -1.04; N -0.732; S -0.402; Q -0.818; T -1.01
K32: R -0.052; D 0.007; L -0.169; V -0.157; I -0.189; F -0.332; W -0.159; H -0.351; P -0.359; E 0.003; N -0.011; C -0.401; M -0.209; Q -0.08; T -0.001; G -0.2
I39: M 0.027; G -0.85; P -0.654; K -1.04; V 0.019; T -0.159; R -1; E -0.261; W -0.57; Q -0.743; L -0.017; C -0.102; A -0.259; F -0.112
L27: H -0.463; S -0.438; Y -0.834; W -0.856; A -0.229; G -0.284; V 0.035; K -0.708; R -0.876; E -0.857; C -0.384; D -0.532; I -0.132; F 0.079; T -0.383
F43: R -0.091; G -0.204; P -0.052; W 0.002; M -0.019; D -0.175; Q 0.004; C -0.35; I -0.164; K -0.118; T -0.11; V -0.118; S -0.037; H -0.167; A -0.063; L 0.077; Y -0.013
F44: Q -0.96; S -0.499; H -0.884; T -0.453; P -0.744; L -0.227; R -1.05; I -0.278; V -0.21; G -0.637; M -0.331; A -0.095; N -0.875; D -0.914; C -0.117; E -0.991; W -0.13
S35: W -0.509; P -0.228; L -0.335; Q -0.105; E -0.101; H -0.132; T -0.021; R -0.156; M -0.271; G 0.073; N 0.011; D -0.02; F -0.33; V -0.405; C -0.183; A -0.076
Y34: M -0.185; P -0.897; A -0.274; W 0.046; V -0.978; K -0.032; H -0.106; S -0.108; E -0.181; T -0.684; R -0.207; G -0.215; N 0.245; L -0.227; F 0.109; Q -0.346
M47: H -0.248; E -1.08; N -0.285; I 0.077; L -0.004; G -0.848; A -0.162; K -0.161; F -0.293
I31: K -0.059; M 0.08; F -0.549; V -0.001; P -1.22; L -0.305; Q -0.075; G -0.384; W -0.48; S 0.041; R 0.063; T -0.023; H -0.034
N46: C -0.153; R 0.066; Y -0.09; M -0.135; I -0.397; S -0.087; T 0.071; V -0.34; P -0.205; K 0.033; A -0.077; G -0.089; F 0.045; H 0.297; L -0.175; W -0.114
L36: N -0.742; E -0.605; P -0.573; H -0.521; S -0.566; V -0.21; G -0.467; A -0.83; C -0.769; K -0.839; I 0.08; R -1.04; F -0.195; Q -0.603; T -0.51; D -0.521
W29: P -1.01; V -0.14; Y -0.058; E 0.212; D 0.189; H -0.033; S 0.112; C -0.041; A 0.101; L -0.116; K 0.005; N 0.432; R 0.003; G 0.168; I -0.029; Q 0.084; T 0.13
A30: W -0.554; I -0.061; F -0.287; D -0.709; N -0.136; T -0.058; V -0.092; R -0.21; E -0.071; S 0.031; H -0.162; C -0.058; M -0.057; G -0.253; L -0.186; K -0.161; P -1.07; Q 0.18
S42: V -0.07; Y -0.264; R -0.115; H -0.054; E -0.352; G -0.062; A -0.037; T 0.023; M -0.11; L -0.134; K -0.223; N 0.291; P -0.094; D 0.084; W -0.294
E28: W -0.285; K 0.058; S -0.123; A 0.006; T -0.017; F -0.366; N -0.377; M -0.187; Y -0.12; G -0.189; R -0.018; C 0.009; L -0.013; Q 0.005; I 0.141; P -0.745; V -0.035
D40: R -0.469; M -0.67; A -0.486; G -0.631; Y -0.686; W -0.887; P -0.162; N 0.162; K -0.276; V -0.892; E -0.043; L -0.921; S -0.217; I -0.576; T -0.268; Q -0.252
